Results on 9 molecules are retold here after patent US20240025959A1 (UNIVERSITY OF SOUTHERN CALIFORNIA, published 2024).

The target in assay [1] is T1, Beclin 2 (human, full length) (human, UniProt A8MW95 1-431).
T1 construct: All tagged and endogenous human forms are kept under this one id; the form used is named under assay; also called BECN2; Flag-Beclin 2
T1 sequence: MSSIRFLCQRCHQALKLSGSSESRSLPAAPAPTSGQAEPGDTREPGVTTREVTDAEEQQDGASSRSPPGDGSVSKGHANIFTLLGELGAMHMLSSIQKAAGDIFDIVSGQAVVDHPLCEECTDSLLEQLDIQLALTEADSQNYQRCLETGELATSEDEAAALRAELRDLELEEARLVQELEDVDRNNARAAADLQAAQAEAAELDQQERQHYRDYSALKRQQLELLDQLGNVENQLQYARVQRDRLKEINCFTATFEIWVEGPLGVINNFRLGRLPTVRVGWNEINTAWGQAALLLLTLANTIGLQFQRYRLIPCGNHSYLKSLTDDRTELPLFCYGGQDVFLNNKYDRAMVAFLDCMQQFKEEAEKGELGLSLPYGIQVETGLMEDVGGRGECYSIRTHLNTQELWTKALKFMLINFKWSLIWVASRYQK
In words: co-IP with anti-Flag beads and immunoblot; 293T cells co-transfected with HA-Beclin 2 and a Flag-tagged plasmid (FIG. 13C).

For assay [2], the target named is T2, AIM2 (human, full length) (human, UniProt O14862 1-343).
T2 construct: also called Flag-AIM2; GFP-AIM2
T2 sequence (looked up): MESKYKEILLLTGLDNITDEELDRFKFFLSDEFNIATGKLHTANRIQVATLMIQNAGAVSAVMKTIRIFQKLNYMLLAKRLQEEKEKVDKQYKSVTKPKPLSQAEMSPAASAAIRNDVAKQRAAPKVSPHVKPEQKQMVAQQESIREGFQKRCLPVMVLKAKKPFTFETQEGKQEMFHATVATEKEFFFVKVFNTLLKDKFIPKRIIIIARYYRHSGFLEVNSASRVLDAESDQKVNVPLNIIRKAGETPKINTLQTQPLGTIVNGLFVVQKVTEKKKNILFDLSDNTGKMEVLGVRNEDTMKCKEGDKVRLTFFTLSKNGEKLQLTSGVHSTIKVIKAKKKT
In words: co-IP with anti-Flag beads; HA-tagged Beclin 2 truncations co-transfected with Flag-AIM2 (FIG. 25K).
Method: (§1) Cell lysates were immunoprecipitated with anti-Flag beads and immunoblotted using indicated antibodies. […] Cell lysates were immunoprecipitated with anti-Flag beads and immunoblotted using indicated antibodies.
(§2) Whole cell lysates obtained 24 h post-transfection or via ligand stimulation were obtained using RIPA lysis buffer and shook on ice for 15 min. The HEK293T cell lysates were immunoprecipitated with anti-Flag conjugated beads (BioLegend) at 4° C. overnight.

For assay [3], the target named is T3, NLRP3 (human, full length) (human, UniProt Q96P20 1-1036, limits assumed).
T3 construct: also called Flag-NLRP3; HA-NLRP3
T3 sequence (Q96P20 whole entry): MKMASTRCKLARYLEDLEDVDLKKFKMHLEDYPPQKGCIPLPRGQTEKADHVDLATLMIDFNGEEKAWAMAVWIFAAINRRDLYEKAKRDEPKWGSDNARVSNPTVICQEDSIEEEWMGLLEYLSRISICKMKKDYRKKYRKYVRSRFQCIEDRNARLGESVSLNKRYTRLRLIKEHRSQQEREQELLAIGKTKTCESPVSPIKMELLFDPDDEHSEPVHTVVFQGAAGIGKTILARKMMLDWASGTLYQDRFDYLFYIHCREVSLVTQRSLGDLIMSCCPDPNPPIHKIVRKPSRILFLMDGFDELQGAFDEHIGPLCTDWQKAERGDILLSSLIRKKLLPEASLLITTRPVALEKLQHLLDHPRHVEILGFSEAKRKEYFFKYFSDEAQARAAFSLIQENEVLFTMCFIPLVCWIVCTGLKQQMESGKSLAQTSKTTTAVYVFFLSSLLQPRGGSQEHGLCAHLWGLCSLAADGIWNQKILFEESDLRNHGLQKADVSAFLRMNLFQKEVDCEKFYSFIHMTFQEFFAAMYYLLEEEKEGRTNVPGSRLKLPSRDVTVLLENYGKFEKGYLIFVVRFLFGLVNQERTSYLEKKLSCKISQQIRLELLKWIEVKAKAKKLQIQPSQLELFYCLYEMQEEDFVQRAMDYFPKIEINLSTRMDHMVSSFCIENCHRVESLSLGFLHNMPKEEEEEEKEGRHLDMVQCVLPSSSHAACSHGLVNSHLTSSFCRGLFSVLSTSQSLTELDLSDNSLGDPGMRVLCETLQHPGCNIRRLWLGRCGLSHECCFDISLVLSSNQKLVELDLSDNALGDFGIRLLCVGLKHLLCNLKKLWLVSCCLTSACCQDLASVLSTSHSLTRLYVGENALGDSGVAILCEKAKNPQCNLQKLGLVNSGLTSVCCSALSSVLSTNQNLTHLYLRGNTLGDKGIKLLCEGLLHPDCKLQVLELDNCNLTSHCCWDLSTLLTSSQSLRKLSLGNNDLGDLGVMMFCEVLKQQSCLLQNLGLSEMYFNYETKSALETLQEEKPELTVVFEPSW
The experiment in a line: co-IP with anti-Flag beads; HA-tagged Beclin 2 truncations co-transfected with Flag-NLRP3 (FIG. 25L).
Method: as §1, §2

The target in a further assay is T4, ULK1 (human, UniProt O75385 1-1050).
T4 construct: also called HA-ULK1
T4 sequence (looked up): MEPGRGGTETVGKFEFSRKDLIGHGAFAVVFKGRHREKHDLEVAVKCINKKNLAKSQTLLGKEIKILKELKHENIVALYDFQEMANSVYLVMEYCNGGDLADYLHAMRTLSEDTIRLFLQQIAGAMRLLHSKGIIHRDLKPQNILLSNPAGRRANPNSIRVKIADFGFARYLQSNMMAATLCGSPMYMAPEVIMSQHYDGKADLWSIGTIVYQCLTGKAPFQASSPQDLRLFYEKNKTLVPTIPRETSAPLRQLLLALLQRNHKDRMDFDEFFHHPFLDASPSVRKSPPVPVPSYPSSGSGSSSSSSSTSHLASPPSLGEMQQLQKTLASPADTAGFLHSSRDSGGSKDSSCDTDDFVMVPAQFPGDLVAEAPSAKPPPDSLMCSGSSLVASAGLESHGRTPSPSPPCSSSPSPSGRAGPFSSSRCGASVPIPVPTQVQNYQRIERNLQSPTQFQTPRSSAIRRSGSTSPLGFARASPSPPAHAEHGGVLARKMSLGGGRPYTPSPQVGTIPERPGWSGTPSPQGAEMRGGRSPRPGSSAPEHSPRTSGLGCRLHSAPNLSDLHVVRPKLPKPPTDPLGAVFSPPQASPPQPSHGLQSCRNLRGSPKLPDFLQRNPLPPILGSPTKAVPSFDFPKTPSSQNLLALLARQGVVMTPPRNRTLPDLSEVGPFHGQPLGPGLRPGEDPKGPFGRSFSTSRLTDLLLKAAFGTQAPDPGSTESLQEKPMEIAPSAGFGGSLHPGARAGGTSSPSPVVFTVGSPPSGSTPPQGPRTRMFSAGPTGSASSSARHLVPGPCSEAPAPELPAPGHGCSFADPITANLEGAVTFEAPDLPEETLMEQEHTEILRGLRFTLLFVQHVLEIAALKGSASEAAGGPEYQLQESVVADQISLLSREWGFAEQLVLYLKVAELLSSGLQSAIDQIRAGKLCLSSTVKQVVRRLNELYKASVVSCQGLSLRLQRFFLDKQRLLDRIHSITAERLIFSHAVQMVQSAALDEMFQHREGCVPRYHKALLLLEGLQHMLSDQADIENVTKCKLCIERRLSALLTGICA
The experiment in a line: co-IP with anti-Flag beads and immunoblot; 293T cells transfected with the indicated Flag-tagged plasmid (FIG. 12B).

Assay [4] addresses T1, Beclin 2 (human, full length). The experiment in a line: co-IP with anti-Flag beads and immunoblot; HEK293T cells co-transfected with HA-Beclin 2 and Flag-tagged SNARE or RAB proteins (FIG. 32A).
Method: Whole cell lysates obtained 24 h post-transfection or via ligand stimulation were obtained using RIPA lysis buffer and shook on ice for 15 min. The HEK293T cell lysates were immunoprecipitated with anti-Flag conjugated beads (BioLegend) at 4° C. overnight. […] The beads were washed five times with RIPA lysis buffer, and immunoprecipitates were eluted with 2×SDS loading buffer and subjected to SDS-PAGE gel electrophoresis, followed by immunoblotting. The secondary antibody (Veriblot for IP detection, HRP-conjugated) that only recognized native IgG but not denatured IgG was applied for immunoblotting of endogenous proteins in immunoprecipitates.

Method for ULK1: Data are representative of at least three independent experiments.
The secondary antibody (Veriblot for IP detection reagent HRP) that only recognized native IgG but not denatured IgG was applied for immunoblotting of proteins in immunoprecipitates. For immunoprecipitation of Flag-tagged proteins, cell lysates were incubated with anti-Flag beads (Sigma) at 4° C. overnight. The beads were washed four times with RIPA lysis buffer, and immunoprecipitates were eluted with 2×SDS loading buffer. Immunoblotting was performed by loading the samples on SDS-PAGE gels, conducting electrophoresis, transferring the samples to PVDF membranes (Bio-Rad), and then incubating the membranes with the indicated antibodies. For all immunoblots, the LumiGLO Chemiluminescent Substrate System from KPL (Gaithersburg, MD) was used for protein detection.

B1: VAMP8 (other, human, UniProt Q9BV40 1-100, looked up)
chain: MEEASEGGGNDRVRNLQSEVEGVKNIMTQNVERILARGENLEHLRNKTEDLEATSEHFKTTSQKVARKFWWKNVKMIVLICVIVFIIILFIVLFATGAFS
As for B1, the binding result in assay [1] was “binds”.

B2: RAB8A (other, human, UniProt P61006 1-207, looked up)
chain: MAKTYDYLFKLLLIGDSGVGKTCVLFRFSEDAFNSTFISTIGIDFKIRTIELDGKRIKLQIWDTAGQERFRTITTAYYRGAMGIMLVYDITNEKSFDNIRNWIRNIEEHASADVEKMILGNKCDVNDKRQVSKERGEKLALDYGIKFMETSAKANINVENAFFTLARDIKAKMDKKLEGNSPQGSNQGVKITPDQQKRSSFFRCVLL
As for B2, the binding result in assay [1] is on record as “binds”.

B3: Beclin 2/ΔECD (ECD domain deletion fragment, residues 1-248) (other)
chain: MSSIRFLCQRCHQALKLSGSSESRSLPAAPAPTSGQAEPGDTREPGVTTREVTDAEEQQDGASSRSPPGDGSVSKGHANIFTLLGELGAMHMLSSIQKAAGDIFDIVSGQAVVDHPLCEECTDSLLEQLDIQLALTEADSQNYQRCLETGELATSEDEAAALRAELRDLELEEARLVQELEDVDRNNARAAADLQAAQAEAAELDQQERQHYRDYSALKRQQLELLDQLGNVENQLQYARVQRDRLKE
notes: HA-tagged truncation; also called Beclin 2/AECD
Turning to B3, the binding result in assay [2] and in assay [3] was “no binding” each time.

B4: Beclin 2/ECD (ECD domain alone) (other)
chain: INCFTATFEIWVEGPLGVINNFRLGRLPTVRVGWNEINTAWGQAALLLLTLANTIGLQFQRYRLIPCGNHSYLKSLTDDRTELPLFCYGGQDVFLNNKYDRAMVAFLDCMQQFKEEAEKGELGLSLPYGIQVETGLMEDVGGRGECYSIRTHLNTQELWTKALKFMLINFKWSLIWVASRYQK
notes: HA-tagged truncation
As for B4, the binding result in assay [2] and in assay [3] was “no binding” throughout.

B5: STX6 (other, human, UniProt O43752 1-255, looked up)
chain: MSMEDPFFVVKGEVQKAVNTAQGLFQRWTELLQDPSTATREEIDWTTNELRNNLRSIEWDLEDLDETISIVEANPRKFNLDATELSIRKAFITSTRQVVRDMKDQMSTSSVQALAERKNRQALLGDSGSQNWSTGTTDKYGRLDRELQRANSHFIEEQQAQQQLIVEQQDEQLELVSGSIGVLKNMSQRIGGELEEQAVMLEDFSHELESTQSRLDNVMKKLAKVSHMTSDRRQWCAIAILFAVLLVVLILFLVL
notes: also called syntaxin 6
With B5, the binding result in assay [1] is given as “binds”.

B6: STX8 (other, human, UniProt Q9UNK0 1-236, looked up)
chain: MAPDPWFSTYDSTCQIAQEIAEKIQQRNQYERKGEKAPKLTVTIRALLQNLKEKIALLKDLLLRAVSTHQITQLEGDRRQNLLDDLVTRERLLLASFKNEGAEPDLIRSSLMSEEAKRGAPNPWLFEEPEETRGLGFDEIRQQQQKIIQEQDAGLDALSSIISRQKQMGQEIGNELDEQNEIIDDLANLVENTDEKLRNETRRVNMVDRKSASCGMIMVILLLLVAIVVVAVWPTN
In the case of B6, the binding result in assay [1] is “binds”.

B7: STX7 (other, human, UniProt O15400 1-261, looked up)
chain: MSYTPGVGGDPAQLAQRISSNIQKITQCSVEIQRTLNQLGTPQDSPELRQQLQQKQQYTNQLAKETDKYIKEFGSLPTTPSEQRQRKIQKDRLVAEFTTSLTNFQKVQRQAAEREKEFVARVRASSRVSGSFPEDSSKERNLVSWESQTQPQVQVQDEEITEDDLRLIHERESSIRQLEADIMDINEIFKDLGMMIHEQGDVIDSIEANVENAEVHVQQANQQLSRAADYQRKSRKTLCIIILILVIGVAIISLIIWGLNH
Take B7: the binding result in assay [1] is reported as “binds”.

B8: ATG9A (human) (other, UniProt Q7Z3C6 1-839, looked up)
chain: MAQFDTEYQRLEASYSDSPPGEEDLLVHVAEGSKSPWHHIENLDLFFSRVYNLHQKNGFTCMLIGEIFELMQFLFVVAFTTFLVSCVDYDILFANKMVNHSLHPTEPVKVTLPDAFLPAQVCSARIQENGSLITILVIAGVFWIHRLIKFIYNICCYWEIHSFYLHALRIPMSALPYCTWQEVQARIVQTQKEHQICIHKRELTELDIYHRILRFQNYMVALVNKSLLPLRFRLPGLGEAVFFTRGLKYNFELILFWGPGSLFLNEWSLKAEYKRGGQRLELAQRLSNRILWIGIANFLLCPLILIWQILYAFFSYAEVLKREPGALGARCWSLYGRCYLRHFNELEHELQSRLNRGYKPASKYMNCFLSPLLTLLAKNGAFFAGSILAVLIALTIYDEDVLAVEHVLTTVTLLGVTVTVCRSFIPDQHMVFCPEQLLRVILAHIHYMPDHWQGNAHRSQTRDEFAQLFQYKAVFILEELLSPIVTPLILIFCLRPRALEIIDFFRNFTVEVVGVGDTCSFAQMDVRQHGHPQWLSAGQTEASVYQQAEDGKTELSLMHFAITNPGWQPPRESTAFLGFLKEQVQRDGAAASLAQGGLLPENALFTSIQSLQSESEPLSLIANVVAGSSCRGPPLPRDLQGSRHRAEVASALRSFSPLQPGQAPTGRAHSTMTGSGVDARTASSGSSVWEGQLQSLVLSEYASTEMSLHALYMHQLHKQQAQAEPERHVWHRRESDESGESAPDEGGEGARAPQSIPRSASYPCAAPRPGAPETTALHGGFQRRYGGITDPGTVPRVPSHFSRLPLGGWAEDGQSASRHPEPVPEEGSEDELPPQVHKV
notes: Transmembrane protein; co-IP from RIPA lysates; Tagged and endogenous human forms kept under one id; also called Flag-ATG9A; HA-ATG9A
Take B8: the binding result with ULK1 was “binds”.

B9: VAMP7 (other, human, UniProt P51809 1-220, looked up)
chain: MAILFAVVARGTTILAKHAWCGGNFLEVTEQILAKIPSENNKLTYSHGNYLFHYICQDRIVYLCITDDDFERSRAFNFLNEIKKRFQTTYGSRAQTALPYAMNSEFSSVLAAQLKHHSENKGLDKVMETQAQVDELKGIMVRNIDLVAQRGERLELLIDKTENLVDSSVTFKTTSRNLARAMCMKNLKLTIIIIIVSIVFIYIIVSPLCGGFTWPSCVKK
Take B9: the binding result in assay [4] is “binds”.
